Laboratory results: the DeepSol protein solubility set

experiment: soluble on expression in E. coli; label from the status in PepcDB or PDB records

Soluble on expression in E. coli, not soluble:
MGSDKIHHHHHHMHLGKINEDVFNKVIYPHLGERRKEVVVGPQHGVDTGAIDLQDGRVLVVKTDPVFIVPQFGFKKAAWFAVHILASDVMTSGIPPEYAVIDLNLPPRIKDEEFEEMWIGIHEALKEIGVMVVGGHTGVYEGTDYPMVGGFTMFGIGEKERLGMPSKVKVGDSVIMTKGPAIEATGLLTNLYPEYFKQRLSNEIFNEAYNMYWKMSCWKDGLIASRIGIHMMHDATEGGVFGALTEVARASSKGMRIYEERFFINRAVREVTKLVNIDPWISISEGTMIIVTDKGEEVRNTLIREGIEAEIIGEIVDQSGEVTMVKKDGSRVKIEHPLEDPFWRAFFDLASKT
MGSDKIHHHHHHMHLLFPEVCILCQKPLGEGEEHICAGCFNDFNPFPSVLAGGAALKSTVRAHFGEKAVPAAAWCLYPYRSRGSLHEAMHAMKYGGLFPLGELFGKRLGELICQGGVPVGFDAIVPVPLHHLKRIERTYNQAEALARGMAGLIGLPVATRSLERCVYTGTQTGLGLEARRENMAGAFRPGRERCPARVLLVDDVLTTGATMVSAAKVLKAAGAVEVAFATVALTEKE
MGSDKIHHHHHHMHLSINLLPILSQHQVSFNTDIYCLEKFMFQIDTLIAAKIVDRTMKIIGHNINVMNAQAVILGSGDIDRIGTVHEGALLAISQNRNVEISQAIASNLHGVKPGLNLPLHYHGQVVGVIGITGEPDTLSHYGELLKMTAEMIVEQANLQEQLQWQNRQTEEFISQLIHANEQDLPSLQQWALQLGIDLSVPRVAAIIELDSNNPLYQQDNQALKQVLYLLQNPVRDNLIAMTSLTQLVILKPAFLDGKQFDPELENQRINKLLKRLPANMQLSLHISLGHYFGGELGISYSYRTAKETLDIGKKLHPTKTKYLYQDYSLQVLLSGLRHHWRGNALAGPYLKLIEVDNNQQLQKTLAAYLDHMGDIQACANSLFIHRNTLRYRLDKIQTITNIDLRSFNGLLSLYLGQLIHQPST
MGSDKIHHHHHHMHMKLDDITYMNPWWEGKEDYHVKQWEKQKVHWEPKWIREISLKPFSLNFVLGPRQVGKTTGIKLLIQKILEENPPESVLYLNLEILPTYRELLDIIREFQELKKEEGIKTGYIFLDEASSLEGWWRGVKPLIDSGLLENDVITVTGSSSLRVRRDIELFPGRRGGGKTLEVMPLSFPEYARVMGLKKHKLEGSKVIKLFEKYIQTGGFPGSINGFPMEDLLGAYIGEFVRFGKSLEIAKEIFSALIRSAPSATSFRALAEMTSGYSYKVVQDYIEFFRDLYILGMAYLKQGNQVMYRREKKFFFRDPLLAKLFSLWSGTEIGKDALYEWIVQEHVFRKFGEIHYFRNSYEIDIIASDMKIEVKAGKAHRKYPRGVKVLEKEDVPFFLIELYNEDC
MGSDKIHHHHHHMHQDTVRATAFAMPLTSPAYPVGPYRFRNREYLIITYRTDPKKLRSLVPEPLELSEPLVKFEFIRMPDSTGFGNYTESGQVIPVTFRGRKGSYTHCMFLNDHPPIAGGRELWGFPKKLATPTLRTETDTLVGTLDYGPVRVATATMGYKHEAADLSAVRSSLAEPNFLLKIIPHVDGTPRICELVEYHLEDVDLRGAWAGPASLNLWSHALAPVAELPVLEVVSAMHIVADLTLALGKVVHDYLPKSEPRDLKGRSHAFAE
MGSDKIHHHHHHMHRVGFTTTIPLEIVLAAGMTPVDLNNVFITSPHATRMIEEAEVDGFPRSICGWIKGIYAAVVECGIHELIAVTEGDCSNTRALMEVLSLKGVETIPFAYPHDRDPAGLRFEIEKLMRRFGVGWDAVKLSRERLGRIRRKVKEIDRLTWDENRVSGQENHYFQVCTSDMNSDPDRFEAEVDAFLEKARQREPFRQRLRLAYIGVPPIMTDLYPFVETLDARVVFNETQRQFAMPFDTPDLVEQYRAYTYPYDIFHRLSDILMELERRKVDAVIHYVQSFCFRQIEDMIVRQKLPLPVLTLEGDKPGPLDARTRIRIEGFLEMLA
MGSDKIHHHHHHMHSFHDAFSAPNAGNDTEAKRLPAKRRIRLKTAVLGVLLLASVAAQAEPRLTDLQYIGSHNSYHAGFAPSEATLLKQHDPAAFATLDYRHPPLTQQLDDGVRQLELDVFADAHGGRYAHPAIVEQIAKAGLPPAPASAPAGVMNKPGFKVLHVQDVDQRSTCQPLVTCLQEVRAWSQQHPGHLPIFILLETKQSPVQLSFPTVQPEPFDRKAMDALDAELRSVFRPGEYVSPDTVRGTARTLNAAVLAHGWPALRATRGKVVFLLDQRAAGASYLPGHPSLRGRVCFTNAEPGQDDAAFTERNDGPAEDITRLVQAGYLVRTRTDADLKEPARGDNRRRDAMLATGAQLLSTDFPAHEPARNGYVVRFDGDAVARCAPQLPRAHCEGVDLTH
MGSDKIHHHHHHMIAVLDMGTNSFILLVVSEKGETILEEVHEVGIASGNLEKAKEVFKECVEKAEKMGAELHIFGTAFFRKHPDIFQQITGGRGEILPEEKEAYYSYISVAKDFGKKDILVADLGGGSLELAWKDGYVSLELGTHVLNRTFSLTLPYIEPVDGIVEYVMKRLPEVKKDELFGVGGSFVALAALMKGKWDLEILHGSVLKLEEVEKLVDKIKRMSFEDVKNLKVLPEGREKTILAGGIVTIALLRKYSPRMTVSTRGYRYGIVWEILEKRWRARGDSNPQPPDPQSGALSN
MGSDKIHHHHHHMIDSHAHLISADVERYPTSPLSGELEPGALDNPVTAERLLALMDEQGIERALAVQRAHIYGFNNAYVCDAAQRYPERLRALGMVDALDQNIREQVRHWVGERGAVGIRLTEPFKGADPSWFASPEAMAAWETVSELGGSVRLHFYRWNREAALKALKPVLQRFPQTTVVLDHFSNIVGESGAPDHGVDATLLEMVEHSNVYLLYSMINLGKLAAAQMAAAPMVERVVREFGADRVMWGSDVAQSKGSYAQMVALAKESVSLLSETDQRKVLHDTAHAVYWGTR
MGSDKIHHHHHHMIERKRYVTMKGHRGGLAVYVNERCSVDEFLDDLELTLADKSVENGRAVPITFFFGRRYVDEGVVTAVESIVARHDSFSFNGYDSECLTKDEAKALYGERTFHYFGGTARSGHVVDVEGSIVVIGDINPGAVVHATGSIYCLGALRGTVHAGKGGNHQAVIAASVLQPKWISISDFVYEDPDDAPIQALDMGCAFVGETGVEFSRLQTVPLARMDQFAIDSERG
MGSDKIHHHHHHMIFSNLKLNDNEPIYIQLKNYISDMISKGLIPDNSKLPSTRELSQLLQVSRNSVVLTYEELKSEGLIYSISGKGTFVKSKNKSSNTTWSLNWDCLENTYSKKANELDIIKSEIPWSSDLISFKSISPDGDLFDMEELKKSFLNRISLEGHKLLNYGYAQGYKPLIDYLLEYMTNKGADISNKDILITNGFTEGFDIIMSSFTQEKDYIICENPTHNTAIKIMKSHNLNILGVDINEDGLDFNMLEDNLIKYKNKIKFAYITPSYHNPTGIVMTPENRYKFYNLMKKYNIAIIEDGFNEELLYNSSHIFPICSLDNMNNGVVYIGSFSKILFPGMRIGWIFADKKVINKLESVKRCRNIHVSFLDQGILFDYLSNGGFEKYIKKIRKFYGDKFNFAYKCIKKYIKTEYILGDGGLHIFIKLKNIDTRVLLEKCYEKNVIFMPGDLFFTDNSGFDTLRLGFSRLSFEDIEIGIKIIGETINEMF
MGSDKIHHHHHHMIGHSEVIRCFGMSGKVYFFNDSGNIQKGVHDLPPKGLACFVKIKNMMMQAKPAEVSMVDALVDPWLGAIGRDFEGYRNHCRRVFIFACTLAGAEGESREKIAIAAAFHDLGIWTDNTFDYLEPSKRLASAYLASTSKAEWTDEIKAMIEQHHKVTPWSCKPGWLVEPFRKADWIDVTLGARNFELNRSYIREIQRRYPNAGFHATLARLSFERMKTHPKDPLPMMRW
MGSDKIHHHHHHMIGVRLLVKMSFRSGFRVGRGNETDSTLPTIHSDTIYGAVVYHAFKWSEKAEDFAKKLKVSSLLFVRGDRLLVPKPFLYNTYSLEEDDEESPKELKKASYVFLDKLADYRSIKEASGAVCKENPVEIVRIPRNSLDRITSSSNLYFVEVAFVKEGFTPAFLAEFPDEYEGLFKTAVKSLGDSGIGADSTYGYGLFNAEFESAPDFPEEGEYYLTLSLFVPSAEERSKMNEGYYRVVKRRGVKRDEMKVKKEISYVQEGSVFPFKPEGRGVLKIEDYFVQTSPLCVAFGGDGK
MGSDKIHHHHHHMIHRQTNQLNTDNLEKKQRQYKYAFNLAEIDSESFPMHIFRKYAKDVFEDHQLSLLQRGERQGEYILRQQISHYLFNSRGVTCHPNQIIVGSSTSQLLDMITNLLKKEEFIIEQPSYPPIKHTLDKKGISYIQVPVEQNGIQIDPILNTNNNILYITPSHQFPTGYVTNLKKRTQLINWSHQAKQRYIIEDDYDSEFRYFGKPIPALQSLDTKGKVIYISTFSKSLYPSCRIAYIVLPQNLMHKYNNQKYKEGNTVPVHVQHMIAQFMISGKFERHLNKMRKIYRDKLDYILKRLKPYNTQIKIEGALTGMHFTITVNNGLSMKQCLKNAKKNNLKLKPYHYENYSKVYPKFILGFGGIKKEELEDHVNALIHSLVI
MGSDKIHHHHHHMIIELNKSNSENLTKTELEIIKFINENESILPELSIVEIAHETYSSPATVSRAIRKCGLNGFNELRYRLTVKDENDDIQNMGDIINKSFIEAQRVIEQISLTTLINIIKTINKSSKIYILARGLTEYVAKEFSLKLQLLDFNVVFINDPNIMKIKSKSIKKDELIIIFSLNGNTIELVESAQNANLVGAKVITCCCSESAKLIKYSDLYIVGYKHEHISISEYEVSSRLPLYIISRIIIDYMVRYNNSEN
MGSDKIHHHHHHMIKIAIVGFGTVGQGVAELLIRKREEIEKAIGEFKVTAVADSKSSISGDFSLVEALRMKRETGMLRDDAKAIEVVRSADYDVLIEASVTRVDGGEGVNYIREALKRGKHVVTSNKGPLVAEFHGLMSLAERNGVRLMYEATVGGAMPVVKLAKRYLALCEIESVKGIFNGTCNYILSRMEEERLPYEHILKEAQELGYAEADPSYDVEGIDAALKLVIIANTIGVKASYEDVEVTGITQITPEAFQVAAEKGYTIRLIAEVSREKLKVSPRLVPFHHPLAIKGTMNAAMFKTDTAGSIFVAGRGAGKEETASAILSDLYEIYAGPR
MGSDKIHHHHHHMIKIKKSEDCCGCSACLSICNHNAIVFKEDVEGFKYPMIEEGKCINCGLCEMACPILYRKVKDIRPTPKAYFAARHKNIVTLRNSSSGGAFTAIAGSVIELGGVVCGVEYDNDGVVRHSFSETMEGIRSFMGSKYVQSEIQGVYNQIKTYLKSDRWVLFTGSPCQVEGLKLFLRKPYENLLTVDLVCHAVPSPLIYKQYINMCSTKLGQKVMSINMRYKQTYGWSHRFSYCFYFENGQKAVDPVWVVNWGKIFFSQMINRPSCHSCKYSNLDRPGDFTIADFWDDKKNRPDLYSCEGTSLLMVNTNMGLDLINKLYDSIDLWKITKDEAMQPCLIRPTCSNQRRQEFWEFYLLRGFDAAYKKYFGDSKYVITKKIVKQIIKRVLRKLQ
MGSDKIHHHHHHMIKNFVLDTNVLLYDPQAIFKFEENNIIIPITVIEEIDRFKKDMNETGRNARQLSRYLDEMRATGSLANGIALETGGTLRVEMYEEKFMKVLPPELREERGDNRILAVALRVKEQDEATPVIFVTKDTNLRIKSDALGLKAEDYESDKVDIEELYPGFTELEVSAEMVDRFHGQGWVDLTGYDLHPNQFVTLRDAANPSHTALGKYRADQKRITPIAKNGKDGVWSIHPRNREQAFAFDALLDDSIKLVTLVGKAGTGKTLLAIAAGLHKTAEENVYNRLLVSRPVFPMGRDLGFLPGDIEEKLTPWMQPIFDNVELLLSGHEAEKRHSKGYKELMAMGIMDIEPLTYIRGRSIPLQFMIVDEAQNLTPHEIKTIITRAGEGTKIVLTGDPYQIDNPYVDASSNGLTYVVERFKGVPIAGHVTMTKGERSELAELAANLL
